Laboratory results from patent CN107840889A (SHANGHAI JIBEI BIOLOGICAL TECH CO LTD, dated 2018).
“And” between values parts separate entries of the source, which are not always exact repeats. Equal values may be shown once.

These binders were tested against T1, CD123-his-biotin抗原 (Homo sapiens (Human), UniProt P26951 19-305, biotin label (site not stated)) (assay: BLI (Octet RED96), CD123-Biotin on AR2G sensor, scFv periplasmic extract as analyte).
T1 construct: Bought from SinoBiological and biotin-labelled; also called CD123-Biotin; CD123抗原; not shown: his tag
T1 sequence: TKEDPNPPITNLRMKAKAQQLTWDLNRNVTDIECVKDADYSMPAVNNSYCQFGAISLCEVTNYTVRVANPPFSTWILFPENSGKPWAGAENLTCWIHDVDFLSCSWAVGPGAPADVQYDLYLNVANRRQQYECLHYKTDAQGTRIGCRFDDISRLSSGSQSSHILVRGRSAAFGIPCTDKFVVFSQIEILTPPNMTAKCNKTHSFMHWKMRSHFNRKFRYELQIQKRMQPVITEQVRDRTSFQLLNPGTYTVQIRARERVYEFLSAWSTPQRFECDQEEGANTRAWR
Set-up: 响应: unit not given here

Row | Binder | koff | 响应
1 | scFv 26292 (scFv, V domains shown, Tested as an scFv in periplasmic extract of TG1 (pCANTAB 5E vector)) VH: QVQLQQPGAELVRPGASVKLSCKASGYTFTSYWMNWVKQRPDQGLEWIGRIDPYDSETHYNQKFKDKAILTVDKSSSTAYMQLSSLTSEDSAVYYCARGNWDDYWGQGTTLTVSS VL: DVQITQSPSYLAASPGETITINCRASKSISKDLAWYQEKPGKTNKLLIYSGSTLQSGIPSRFSGSGSGTDFTLTISSLEPEDFAMYYCQQHNKYPYTFGGGTKLEIK | 0.000206 s⁻¹ and 0.00021 s⁻¹ and 0.000209 s⁻¹ and 0.000207 s⁻¹ | –
2 | 2C5 (scFv, V domains shown) VH: QVQLQQPGAELVRPGASVKLSCKASGYTFTQYWMNWVKQRPDQGLEWIGRIDPYDSETHYNQKFKDKAILTVDKSSSTAYMQLSSLTSEDSAVYYCARSQVSDYWGQGTTLTVSS VL: DVQITQSPSYLAASPGETITINCRASKSISKDLAWYQEKPGKTNKLLIYSGSTLQSGIPSRFSGSGSGTDFTLTISSLEPEDFAMYYCQQHNKYPYTFGGGTKLEIK | 0.000502 s⁻¹ | 0.177
3 | 2D2 (scFv, V domains shown, also called 抗体2D2) VH: QVQLQQPGAELVRPGASVKLSCKASGYKFQSYWMNWVKQRPDQGLEWIGRIDPYDSETHYNQKFKDKAILTVDKSSSTAYMQLSSLTSEDSAVYYCARGNWDDYWGQGTTLTVSS VL: DVQITQSPSYLAASPGETITINCRASKSISKDLAWYQEKPGKTNKLLIYSGSTLQSGIPSRFSGSGSGTDFTLTISSLEPEDFAMYYCQQHNKYPYTFGGGTKLEIK | 0.00014 s⁻¹ | 0.145
4 | 3F8 (scFv, V domains shown) VH: QVQLQQPGAELVRPGASVKLSCKASGYTFTQYWMNWVKQRPDQGLEWIGRIDPYDSETHYNQKFKDKAILTVDKSSSTAYMQLSSLTSEDSAVYYCARGISQDFWGQGTTLTVSS VL: DVQITQSPSYLAASPGETITINCRASKSISKDLAWYQEKPGKTNKLLIYSGSTLQSGIPSRFSGSGSGTDFTLTISSLEPEDFAMYYCQQHNKYPYTFGGGTKLEIK | 0.000558 s⁻¹ | 0.207
5 | 4A6 (scFv, V domains shown) VH: QVQLQQPGAELVRPGASVKLSCKASGYTFQSYWMNWVKQRPDQGLEWIGRIDPYDSETHYNQKFKDKAILTVDKSSSTAYMQLSSLTSEDSAVYYCARGNWDDYWGQGTTLTVSS VL: DVQITQSPSYLAASPGETITINCRASKSISKDLAWYQEKPGKTNKLLIYSGSTLQSGIPSRFSGSGSGTDFTLTISSLEPEDFAMYYCQQHNKYPYTFGGGTKLEIK | 0.000323 s⁻¹ | 0.106
6 | 4C3 (scFv, V domains shown) VH: QVQLQQPGAELVRPGASVKLSCKASGYTFTQYWMNWVKQRPDQGLEWIGRIDPFDSETHYNLQFKDKAILTVDKSSSTAYMQLSSLTSEDSAVYYCARGNWDDYWGQGTTLTVSS VL: DVQITQSPSYLAASPGETITINCRASKSISKDLAWYQEKPGKTNKLLIYSGSTLQSGIPSRFSGSGSGTDFTLTISSLEPEDFAMYYCQQHNKYPYTFGGGTKLEIK | 0.000322 s⁻¹ | 0.083
7 | 4D1 (scFv, V domains shown, also called 抗体4D1) VH: QVQLQQPGAELVRPGASVKLSCKASGYQFTSYWMNWVKQRPDQGLEWIGRIDPYDSETHYNQKFKDKAILTVDKSSSTAYMQLSSLTSEDSAVYYCARGNWDDYWGQGTTLTVSS VL: DVQITQSPSYLAASPGETITINCRASKSISKDLAWYQEKPGKTNKLLIYSGSTLQSGIPSRFSGSGSGTDFTLTISSLEPEDFAMYYCQQHNKYPYTFGGGTKLEIK | 0.000198 s⁻¹ | 0.25
8 | 5B1 (scFv, V domains shown) VH: QVQLQQPGAELVRPGASVKLSCKASGYTFTSYWMNWVKQRPDQGLEWIGRIDPYDSETHYNQKFKDKAILTVDKSSSTAYMQLSSLTSEDSAVYYCARGNWDDYWGQGTTLTVSS VL: DVQITQSPSYLAASPGETITINCRASKSISKDLAWYQEKPGKTNKLLIYSGSTLQSGIPSRFSGSGSGTDFTLTISSLEPEDFAMYYCQQHNRYPYTFGGGTKLEIK | 0.00012 s⁻¹ | 0.422
9 | 5E10 (scFv, V domains shown) VH: QVQLQQPGAELVRPGASVKLSCKASGYTFTSYWMNWVKQRPDQGLEWIGRIDPYDSETHYNQKFKDKAILTVDKSSSTAYMQLSSLTSEDSAVYYCARGNWDDYWGQGTTLTVSS VL: DVQITQSPSYLAASPGETITINCRASKSISKDLAWYQEKPGKTNKLLIYSSSQRLSGIPSRFSGSGSGTDFTLTISSLEPEDFAMYYCQQHNKYPYTFGGGTKLEIK | 0.000254 s⁻¹ | 0.24
10 | 6G3 (scFv, V domains shown, also called 抗体6G3) VH: QVQLQQPGAELVRPGASVKLSCKASGYTFTSYWMNWVKQRPDQGLEWIGRIDPYDSETHYNQKFKDKAILTVDKSSSTAYMQLSSLTSEDSAVYYCARGNWDDYWGQGTTLTVSS VL: DVQITQSPSYLAASPGETITINCRASKSISKDLAWYQEKPGKTNKLLIYSSSRLSSGIPSRFSGSGSGTDFTLTISSLEPEDFAMYYCQQHNKYPYTFGGGTKLEIK | 0.000192 s⁻¹ | 0.425
11 | 6G9 (scFv, V domains shown) VH: QVQLQQPGAELVRPGASVKLSCKASGYTFTSYWMNWVKQRPDQGLEWIGRIDPYDSETHYNQKFKDKAILTVDKSSSTAYMQLSSLTSEDSAVYYCARGNWDDYWGQGTTLTVSS VL: DVQITQSPSYLAASPGETITINCCASNSINKDLIWYQEKPGKTNKLLIYSGSTLQSGIPSRFSGSGSGTDFTLTISSLEPEDFAMYYCQQHNKYPYTFGGGTKLEIK | 0.000318 s⁻¹ | 0.163
12 | 7F1 (scFv, V domains shown, also called 抗体7F1) VH: QVQLQQPGAELVRPGASVKLSCKASGYTFTSYWMNWVKQRPDQGLEWIGRIDPYDSETHYNQKFKDKAILTVDKSSSTAYMQLSSLTSEDSAVYYCARGNWDDYWGQGTTLTVSS VL: DVQITQSPSYLAASPGETITINCRASKSISKDLAWYQEKPGKTNKLLIYSGSTLQSGIPSRFSGSGSGTDFTLTISSLEPEDFAMYYCQQSNKYPYTFGGGTKLEIK | 2.47e-05 s⁻¹ | 0.486
13 | 7G8 (scFv, V domains shown, also called 抗体7G8) VH: QVQLQQPGAELVRPGASVKLSCKASGYTFTSYWMNWVKQRPDQGLEWIGRIDPYDSETHYNQKFKDKAILTVDKSSSTAYMQLSSLTSEDSAVYYCARGNWDDYWGQGTTLTVSS VL: DVQITQSPSYLAASPGETITINCRASKSISKDLAWYQEKPGKTNKLLIYDASRRGSGIPSRFSGSGSGTDFTLTISSLEPEDFAMYYCQQHNKYPYTFGGGTKLEIK | 0.000127 s⁻¹ | 0.463
14 | 8A7 (scFv, V domains shown, 31 is used here; also called 抗体8A7) VH: QVQLQQPGAELVRPGASVKLSCKASGYTFTSYWMNWVKQRPDQGLEWIGRIDPYDSETHYNQKFKDKAILTVDKSSSTAYMQLSSLTSEDSAVYYCARGNWDDYWGQGTTLTVSS VL: DVQITQSPSYLAASPGETITINCRASKSISKDLAWYQEKPGKTNKLLIYSGSTLQSGIPSRFSGSGSGTDFTLTISSLEPEDFAMYYCQQTNRYPYTFGGGTKLEIK | 0.000178 s⁻¹ | 0.471
